The target of experiment [1] is T1, human CD70 recombinant protein (human, UniProt P32970 39-193, limits assumed).
T1 construct: May be the same reagent as ACRO CDL-H5246; also called CD70 protein
T1 sequence (looked up): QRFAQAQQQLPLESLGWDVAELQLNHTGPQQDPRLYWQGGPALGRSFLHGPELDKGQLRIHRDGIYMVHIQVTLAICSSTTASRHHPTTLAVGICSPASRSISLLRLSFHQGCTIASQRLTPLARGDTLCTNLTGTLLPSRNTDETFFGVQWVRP
Briefly: ELISA, coated human CD70, IgG titrated. As to the method: The binding specificity of the CD70 antibodies was tested by ELISA according to a standard protocol. Briefly, 96-well micro-plates were coated with 2 μg/ml of human or cynomolgus CD70 recombinant protein in PBS at 100 μl per well and incubated overnight at 4° C. The plates were washed twice with TBS+0.5% Tween20. 200 μL of blocking buffer (2% BSA in PBS) was added to each well, and the plates were incubated at 37° C. for 2 hours. The plates were washed using the wash buffer mentioned above. Serially diluted antibodies were added to the ELISA plates using 100 μl per well, and the plates were incubated for 1 hour at room temperature. Then plates were washed 3 times. HRP conjugated anti-human Fc antibody solution (Sigma, I18885-2ML, diluted with blocking buffer) was added to the plates using 100 μl per well. The plates were incubated at room temperature for 1 hour and then washed 3 times. Then the TMB solution was added to plates using 100 μl per well and the plates were placed at RT for 5-15 mins. Then the stop solution (2M H2SO4) was added using 50 μl per well. The absorbance was measured at A450 and A630.
(In general: ELISA stands for enzyme-linked immunosorbent assay.)

Experiment [2] has as its target T2, rat CD70 extra-cellular domain (ECD) linked to His tag (rat).
T2 construct: extracellular domain
Briefly: BLI, global fit, cell repeated in each row; response below range of quantification, filing reports no cross-reactivity. As to the method: (§1) Recombinant proteins consisting of human, rat, or mouse CD70 extra-cellular domain (ECD) linked to His tag was purchased (from ACRO systems). 69A7 and 2E7 (20 nM) were immobilized on anti-human IgG Fc biosensor tips (ForteBio). Binding assays using one concentration (100 nM) of recombinant protein in solution were performed using Octet RED (ForteBio). Association time was set at 180s and dissociation time was set at 300s. Binding affinity was calculated using ForteBio Data Acquisition 6.3 software. Affinity was derived by fitting the kinetic data to a 1:1 Langmuir binding model utilizing global fitting algorithms. […] 2E7 had no cross-reactivity to rat or mouse CD70 (Table 10).

For experiment [3], the target named is T3, mouse CD70 extra-cellular domain (ECD) linked to His tag (mouse, UniProt O55237 45-195).
T3 construct: extracellular domain; also called MS CD70; not shown: His tag
T3 sequence (looked up): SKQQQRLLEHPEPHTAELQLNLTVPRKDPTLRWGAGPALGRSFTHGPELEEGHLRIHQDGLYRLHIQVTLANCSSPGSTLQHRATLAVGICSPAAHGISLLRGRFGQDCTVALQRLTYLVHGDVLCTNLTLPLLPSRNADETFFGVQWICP
Described as above. On the procedure:
as §1

B1: 2E7, full IgG (antibody, V domains shown)
VH: QVQLQESGPGLVKPSETLSLTCTVSGGSVSSDYYYWSWIRQPPGKGLEWLGYIYYSGSTNYNPSLKSRVTISVDTSKNQFSLKLRSVTTADTAVYYCARGDGDFLGVCFDYWGQGTLVTVSS
VL: EIVLTQSPATLSLSPGERATLSCRASQSVSSYLAWYQQKPGQAPRLLIFDASNRATGIPARFSGSGSGTDFTLTISSLEPEDFAVYYCQQRSNWPLTFGGGTKVEIK
One may read the Kd as the concentration at which binding is half-saturated. Lower therefore signals a tighter complex. One may read the koff as a measure of how fast the partners let go of each other. The kon is the second-order rate constant of association. A lower kon goes with slower complex formation. Consider B1, for which the “EC50 ratio against antibody 69A7” value in experiment [1] stood at 1.5 times. In experiment [2], this molecule registered a dissociation constant (Kd) of 1.75 nM, an off-rate (koff) of 0.0104 s⁻¹ and a kon of 5.9e+06 M⁻¹ s⁻¹. In experiment [3], this molecule displayed a Kd of 1030 nM, a koff of 0.121 s⁻¹ and a kon of 117000 M⁻¹ s⁻¹.

The record behind these values is patent publication US20250066490A1 (PROFOUNDBIO US, published 2025).
